Assay results as given in patent publication US20220251233A1 (VERSEAU THERAPEUTICS, published 2022).

T1: Human CD53-CHO (full-length human CD53 over-expressed on CHO-K1 cells) (human, UniProt P19397 1-219)
T1 construct: Tetraspanin cell-surface antigen
T1 sequence: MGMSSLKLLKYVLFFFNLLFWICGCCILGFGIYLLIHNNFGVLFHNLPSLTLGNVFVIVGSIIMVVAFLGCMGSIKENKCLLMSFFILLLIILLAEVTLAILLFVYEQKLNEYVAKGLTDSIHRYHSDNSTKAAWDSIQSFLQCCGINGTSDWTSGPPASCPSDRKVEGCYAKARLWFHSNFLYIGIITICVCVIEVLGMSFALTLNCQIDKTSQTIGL


Biological target: T1, Human CD53-CHO (full-length human CD53 …)
Test: flow cytometry on CD53-CHO cells, anti-mouse IgG AF647 gMFI, 4-parameter fit
Description: Binding of anti-human CD53 antibodies was determined by flow cytometry for their ability to bind human CD53-CHO cells compared to parental CHO-K1 cells. All assay steps were performed in FACS buffer (phosphate buffered saline pH 7.4 supplemented with 2% fetal bovine serum). Twenty thousand cells were seeded in 384-well plates and washed twice with ice cold buffer. Cells were incubated with purified antibodies titrated 3-fold from 200 nM to 0.09 nM at 4° C. for 1 hour with gentle agitation, then washed twice with FACS buffer and incubated with anti-mouse IgG Alexa Fluor® 647 and incubated at 4° C. for 40 minutes. Cells were washed twice and resuspended in FACS buffer. Analysis was preformed on the IntelliCyt® iQue Screener and gMFI values for Alexa Fluor® 647 were generated. EC50 values were determined in GraphPad Prism8. Concentration was transformed from nM to Log 10 nM and curves were fit with a nonlinear regression of log(agonist) vs. response−Variable slope (four parameters) or Y=Bottom+(Top−Bottom)/(1+10\hat{ }((LogEC50−X)*HillSlope)). EC50 values for all anti-human CD53 antibodies can be found in Table 6, and representative binding curves can be found in FIG. 7. Binding to CD53-CHO is represented by closed symbols and binding to parental CHO-K1 cells is represented by open symbols.

Row | Binder | EC50
1 | 3A21 (antibody, V domains shown, Murine anti-human CD53 mAb purified from subcloned hybridoma; detected with anti-mouse IgG) VH: EVQLQQSGAELVRPGASVKLSCTASGFNIKDDYMHWVKQRPEQGLEWIGLIDPENGYAEYASKFQGKATITADTSSNTANLQLNSLTSEDTAVYYCTTWGLLRNYVMDYWGQGTSVTVSS VL: DIVMTQAAFSNPVTLGTSASISCSSSKSLLHSNGITYLYWYLQRPGQSPQLLIYRMSNLASGVPDRFSGSGSGTDFTLRVNRVEADDVGVYYCAQMLERPRTFGGGTKLEIK | 2.1 nM
2 | 4N19 (antibody, V domains shown, Murine anti-human CD53 mAb purified from subcloned hybridoma; detected with anti-mouse IgG) VH: EVQLQQSVAELVRPGASVKLSCTASGFSIKNTYMHWVKQRPEQGLEWIGRIDPANGYTQHAPKFQGKATIITDTSSNTAYLQLSSLTSEDTAIYYCAGGGPYYAMDYWGQGTSVTVSS VL: DIVMTQAAPSVPVTPGESVSISCRSSKSLLHSNGDTYLYWFLQRPGQSPQLLIYRMSNLASGVPDRFSGSGSGTAFTLRISRVEAEDVGVYYCMQHLEYPFTFGAGTKLELK | 2.5 nM
3 | 1L17 (antibody, V domains shown, Murine anti-human CD53 mAb purified from subcloned hybridoma; detected with anti-mouse IgG) VH: EVQLQQSVAELVRPGASVKLSCTASGFNIKNTYMHWVKQRPEQGLEWIARIDPANGYSQYAPKFQGKATITADTSSNTAYLQLSSLTSEDTAIFYCAGGSTYSAMDYWGQGTSVTVSS VL: DIVMTQAAPSVPVTPGESVSISCRSSKSLLHSNGDTYLYWFLQRPGQSPQLLIYRMSNLASGVPDRFSGSGSGTAFTLRISRVEAEDVGVYYCMQHLEYPFTFGGGTKLEIK | ~2 nM
4 | 10F09 (antibody, V domains shown, Murine anti-human CD53 mAb purified from subcloned hybridoma; detected with anti-mouse IgG) VH: EVQLQQSVAELVRPGASVKLSCTASGFNIKNTYMHWVKQRPAQGLEWIGKIDPANGFTKHAPRFQGKATITSDTSSNTAYLQLSSLTSEDTAIYYCASGWDAAFAYWGQGTLVTVSA VL: DIVMTQAAPSVPVTPGESVSISCRSSKSLLHSNGDTYLYWFLQRPGQSPQLLIYRMSKLASGVPDRFSGSGSGTAFTLRISRVEAEDVGVYYCMQHLEHPLTFGAGTKLELK | 25.4 nM
5 | 4O24 (antibody, V domains shown, Murine anti-human CD53 mAb purified from subcloned hybridoma; detected with anti-mouse IgG) VH: EVQLQQSVAELVRPGASVKLSCTASAFNIKNTYMHWVKQRPAQGLEWIGKIDPANGYTKYAPRFQDKATITADTSSNTAYLQLSSLTSEDTAIYYCASGRDAAFAYWGQGTQVTVSA VL: DIVMTQAAPSVPVTPGESVSISCRSSKSLLHSNGDTYLYWFLQRPGQSPQLLIYRMSNLASGVPDRFSGSGSGTAFTLRISRVEAEDVGVYYCMQHLEHPLTFGAGTKLELK | 8.1 nM
6 | 10J06 (antibody, V domains shown, Murine anti-human CD53 mAb purified from subcloned hybridoma; detected with anti-mouse IgG) VH: QVQLQQPGAELVKPGASVKLSCKASGYTFTSYWMHWVKQRPGQGLEWIGMIHPNSGSSNHNGKFRGKATLTVDKSSSTAYIQLSSLTSEDSAVYYCARDDYAETMDYWGQGTSVTVSS VL: DVVMTQTPLSLSITIGQPASISCKSSQSLLYSDGKTYLNWFQQRPGQSPKRLMYQVSKLDPGIPDRFSGSGSETDFTLKISRVEAEDLGVYYCLQGTYYPWTFGGGTKLEIK | 82.5 nM
7 | 10N22 (antibody, V domains shown, Murine anti-human CD53 mAb purified from subcloned hybridoma; detected with anti-mouse IgG) VH: EVQLQQSGPELVKPGASVKISCKASGYTFTGYFMNWVKQSHGKSLEWIGDLNPNNGGTNFNQRFKGKATLTVDKSSSTAYMELRSLTSEDSAVYYCARDGYDGGYAMDYWGQGTSVTVSS VL: DVLMTQTPLSLPVSLGDQASISCRSSQNIVHSSGNTYLEWYLQKPGQSPKLLIFKVSNRFSGVPDRFSGSGSGTDFTLKISRVEAEDLGVYYCFQGSHVPYTFGGGTKLEIK | ~8 nM
8 | 4B19 (antibody, V domains shown, Murine anti-human CD53 mAb purified from subcloned hybridoma; detected with anti-mouse IgG) VH: QVQLQQSGTELMKPGASVKLSCKATGYTFTGYWIEWVKQRPGHGLEWIGEILPGSYSTNYNEKFKGKATFTADSSSNTAYMQLSSLTTEDSAIYYCTRDSNYEWFDVWGTGTTVTVSS VL: DVVMTQTPLSLSVTIGQPASISCKSSQSLLHRDGETYLNWLLQRPGQSPKLLIYLVSKLESGIPDRFSGSGSGTDFTLKISRVEVEDLGVYYCLQHTHFPYTFGSGTKLEIK | 36 nM
9 | 5F16 (antibody, V domains shown, Murine anti-human CD53 mAb purified from subcloned hybridoma; detected with anti-mouse IgG) VH: EVQLQQSGAELVRPGASVKLSCTASGFNIEDDYVHWVKQRPEQGLEWIGRIDPANGNIKYAPKFQDKATITADTSSNIAYLQLSSLTAEDTAVYYCARSGTGAMDYWGQGTSVTVSS VL: DIVMTQAAPSVPVTPGESVSISCRSSKSLLHSNGDTYFYWFLQRPGQSPQLLIYRMSNLASGVPDRFSGSGSGTAFTLRISRVEAEDVGVYYCMQHLEFPLTFGVGTKLELK | ~3 nM
10 | 5K03 (antibody, V domains shown, Murine anti-human CD53 mAb purified from subcloned hybridoma; detected with anti-mouse IgG) VH: EVQLQQSVAELVRPGASVKLSCTTSGFNIKNTYMHWVKQRPEQGLEWIGRIDPANGYTECAPKFQGKATITADTSSNTAYLQLSSLTSEDTAIYYCTRSGEDYAMDYWGQGTSVTVSS VL: DIVMTQAAPSVPVIPGESVSISCRSRKSLLHRNGDTYLYWFLQRPGQSPQVLIYRMSNLASGVPDRFSGSGSGTAFTLRISRVEAEDVGVYYCMQHLEYPYTFGGGTKLEIK | ~2 nM
11 | 2M22 (antibody, V domains shown, Murine anti-human CD53 mAb purified from subcloned hybridoma; detected with anti-mouse IgG) VH: EGQLQQSGSELVRPGASVKLSCTASGFNIKDDYVHWVKKRPEQGLEWIGRIDPANGYSHYVPKFHDKATITADTSSNTAYLQLNSLTSDDTAVYYCASGSGSYAMDYWGQGTSVTVSS VL: EIVMTQAAPSVPVTPGESVSISCRSSKSLLHSNGDTYLYWFLQRPGQSPQLLIYRMSNVASGVPDRFSGSGSGTAFTLRISRVETEDVGVYYCMQHLESPYTFGGGTKLEIK | ~0.3 nM
12 | 5M13 (antibody, V domains shown, Murine anti-human CD53 mAb purified from subcloned hybridoma; detected with anti-mouse IgG) VH: EVQLQQSVAELVRPGASVKLSCTASGFNIKNTYMHWVKQRPEQGLEWIGRLDPANGYTQSAPKFQGKATVTADTSSNTAYLHLSSLTSEDTAIYYCLYGNYYYAMAYWGQGTSVTVSS VL: DVVMTQAAPSIPVTPGESVSISCRSSKSLLHSNGDTYLYWFLQRPGQSPQLLIYRMSNLASGVPDRFSGSGSGTAFTLRISRVEAEDVGVYYCMQHLEYPYTFGGGTKLEIK | 11.1 nM
13 | 6J17 (antibody, V domains shown, Murine anti-human CD53 mAb purified from subcloned hybridoma; detected with anti-mouse IgG) VH: EVQLQQSGAELVRPGASVKLSCTASGFNIKDDYMHWVRQRPKQGLEWIGRVDPANGNTKYAPKFQDKATMTADTSSNTAYLRLSSLTSEDTAVYYCAGYFYYSHDGGFACWGQGTLVTVSA VL: DIVMTQGSPSIPVTPGESVSISCRSSKSLLHRNGNIYLYWFLQRPGQSPQRLIYYMSNLASGVPDRFSGRGSGTDFTLRISRVEAEDVGVYYCMQGLEYPFTFGTGTKLEIK | ~23 nM
14 | 6K14 (antibody, V domains shown, Murine anti-human CD53 mAb purified from subcloned hybridoma; detected with anti-mouse IgG) VH: EVQLQQSGADLVRPGASVKLSCTASGFNIKDDYIHWVKQRPVQGLEWIGRIDPANGNTKYAPMFRGKATITADTSSNTAYLQLSSLTSEDTAVYYCARSGTGAMDYWGQGTSVTVSS VL: DIVMTQAAPSVFVTPGESVSISCRSSKSLLHSNGDTYFYWFLQRPGQSPQLLIYRMSNLASGVPDRFSGSGSTTAFTLRISRVEAEDVGVYYCMQHLEFPLTFGAGTKLELK | ~3 nM
15 | 6M01 (antibody, V domains shown, Murine anti-human CD53 mAb purified from subcloned hybridoma; detected with anti-mouse IgG) VH: EVLLQQSVADLVRPGASVKLSCTASGFNIKNTYMHWVSQRPEQGLEWIGRIDPANGYTQCAPSFQGKATITADTSSNTAYLHLSSLSSEDPAIYYCAGGSYYSAMDYWGQGTSVTVSS VL: DIVMTQAAPSLPVTPGESVSISCRSSKSLLHSNGDTYLYWFLQRPGQSPQLLIYRMSNLASGVPDRFSGSGSGTAFTLRISRVEAEDVGVYYCMQHLEYPFTFGSGTKLEIK | ~2 nM
16 | 9E17 (antibody, V domains shown, Murine anti-human CD53 mAb purified from subcloned hybridoma; detected with anti-mouse IgG) VH: QLQQSGAEFVRPGASVKLSCTASGFNIKDDYIHWVKQRPEQGLEWIGRIDPANGYTEYAPKFQGKATITSDTSSNTAYLQLSSLTSEDTAVFYCVWHWDYWGQGTTLTVSS VL: DIVMTQAAFSNPVTLGTSASISCSSYKSLQHNNGITYLYWFLQRPGQSPHLLIYRMSNLASGVPDRFSGSGSGTDFTLRISRVEAEDVGVYYCAQMLERPFTFGTGTKLEIK | 2.1 nM
17 | 9J08 (antibody, V domains shown, Murine anti-human CD53 mAb purified from subcloned hybridoma; detected with anti-mouse IgG) VH: QVQLQQPGAELVKPGASVKLSCKASGYTFTSCWMHWVKQRPGQGLEWIGMIHPNGYSSNYNGKFKNKATLTIDNSSGTAYMQLSGLTSEDSAVYYCARDDYAETMDYWGQGTSVTVSS VL: DVVMTQTPLSLSVTIGQPASISCKSSQSLLYSDGKTYLNWLQQRPGQSPKRLMYQVSKLDPGIPDRFSGSGSETDFTLRISRVEAEDLGVYYCLQGTYYPWTFGGGTKLEIK | 2.7 nM
18 | 10H16 (antibody, V domains shown, Murine anti-human CD53 mAb purified from subcloned hybridoma; detected with anti-mouse IgG) VH: EVQLQQSGAELVRPGASVKLSCTVSGFNIKDDFMNWVRQRPEQGLEWIGRIDPENGNTKYAPKFQDKATITADTSSNTAHLHLSSLTSEDTAVYFCARWIPPYWGQGTLVTVSA VL: DIVMTQAAPSVHVTPGESASISCRSSKSLLHSNGDTYLYWFLQRPGQSPQLLIYRMSNLASGAPDRFSGSGSGTAFTLRISRVEAEDVGVYYCMQLLEYPYTFGGGTKLEIK | ~8 nM
19 | 10B08 (antibody, V domains shown, Murine anti-human CD53 mAb purified from subcloned hybridoma; detected with anti-mouse IgG) VH: QLQQSGTELVRPGASVKLSCTSSGFNIKDDFMHWVKQRPEQGLEWIGWIDPENGATAYASKFQGKATITADTSSNTAYLQLSSLTSEDTAVYYCTTFGDYYGGRKDYWGQGTTLTVSS VL: DIVMTQAAFSNPVTLGTSASISCSSSKSLLHSNGITYLYWYLQRPGQSPQLLIYRMSNLASGVPDRFSGSGSGTDFTLGISRVEAEDVGVYYCAQMLERPRTFGGGTKLEIK | 3.1 nM
